The assay has as its target membrane anchored IgE on transfected 293 cells (human) (UniProt P01854). In words: cell-based or functional assay.

ADCC activity (% cytotoxicity, LDH release, PBMC effectors) data for one molecule are collected here from patent US20120141463A1.

membrane anchored IgE on transfected 293 cells (human), sequence (P01854 whole entry): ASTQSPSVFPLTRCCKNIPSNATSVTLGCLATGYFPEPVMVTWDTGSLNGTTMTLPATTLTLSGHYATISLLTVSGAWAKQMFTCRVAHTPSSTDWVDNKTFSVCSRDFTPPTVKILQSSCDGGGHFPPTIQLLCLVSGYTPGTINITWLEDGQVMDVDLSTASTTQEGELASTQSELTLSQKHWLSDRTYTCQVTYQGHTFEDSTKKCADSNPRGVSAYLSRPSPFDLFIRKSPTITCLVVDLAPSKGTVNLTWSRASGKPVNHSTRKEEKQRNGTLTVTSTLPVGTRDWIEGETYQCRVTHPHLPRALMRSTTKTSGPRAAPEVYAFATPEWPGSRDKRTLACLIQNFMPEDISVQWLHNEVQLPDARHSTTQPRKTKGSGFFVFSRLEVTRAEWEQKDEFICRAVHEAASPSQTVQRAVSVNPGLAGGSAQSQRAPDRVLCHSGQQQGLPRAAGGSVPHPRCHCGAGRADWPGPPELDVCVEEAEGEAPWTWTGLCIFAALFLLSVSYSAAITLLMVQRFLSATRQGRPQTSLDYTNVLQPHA

B1: D5 antibody (antibody, V domains shown)
VH: EVQLLESGGGLVQPGGSLRLSCAASGFTFSKYHMVWVRQAPGKGLEWVSSIGPSGGNTYYADSVKGRFTISRDNSKNTLYLQMNSLRAEDTATYYCARALGATFDYWGQGTLVTVSS
VL: DIQMTQSPLSLPVTLGQPASISCKSSQSLVYRDGITYLSWFQQRPGQSPRRLIYKVSNRDSGVPDRFSGSGSDSNFTLKISSVEAEDVGLYFCMQGSHWPFTFGPGTKVDIKR
In the case of B1, the ADCC activity (% cytotoxicity, LDH release, PBMC effectors) was under 70%.
